{
  "source": "paper PMC3873296",
  "about": "“Crystal Structures and Molecular Dynamics Simulations of Thermophilic Malate Dehydrogenase Reveal Critical Loop Motion for Co-Substrate Binding” (PLoS ONE, 2013)",
  "molecules": {"B1": {"name": "Malate dehydrogenase from Thermus thermophilus (enzyme, UniProt P61977 1-327, looked up)", "chain": "MKAPVRVAVTGAAGQIGYSLLFRIAAGEMLGKDQPVILQLLEIPQAMKALEGVVMELEDCAFPLLAGLEATDDPKVAFKDADYALLVGAAPRKAGMERRDLLQVNGKIFTEQGRALAEVAKKDVKVLVVGNPANTNALIAYKNAPGLNPRNFTAMTRLDHNRAKAQLAKKTGTGVDRIRRMTVWGNHSSTMFPDLFHAEVDGRPALELVDMEWYEKVFIPTVAQRGAAIIQARGASSAASAANAAIEHIRDWALGTPEGDWVSMAVPSQGEYGIPEGIVYSFPVTAKDGAYRVVEGLEINEFARKRMEITAQELLDEMEQVKALGLI", "notes": "Malate dehydrogenase (EC 1.1.1.37) of Thermus thermophilus; calculated mass of the recombinant protein 36874.48 Da; also called TtMDH; MDH; source: E. coli BL21(DE3), purified (heat incubation at 70°C, Ni2+-NTA, Superdex 200 HR gel filtration)"}},
  "key": {"[1]": {"target": "T1, TtMDH (malate dehydrogenase from Thermus thermophilus) (Thermus thermophilus, UniProt P10584)", "T1 construct": "gene mdh", "T1 sequence (P10584 1-327)": "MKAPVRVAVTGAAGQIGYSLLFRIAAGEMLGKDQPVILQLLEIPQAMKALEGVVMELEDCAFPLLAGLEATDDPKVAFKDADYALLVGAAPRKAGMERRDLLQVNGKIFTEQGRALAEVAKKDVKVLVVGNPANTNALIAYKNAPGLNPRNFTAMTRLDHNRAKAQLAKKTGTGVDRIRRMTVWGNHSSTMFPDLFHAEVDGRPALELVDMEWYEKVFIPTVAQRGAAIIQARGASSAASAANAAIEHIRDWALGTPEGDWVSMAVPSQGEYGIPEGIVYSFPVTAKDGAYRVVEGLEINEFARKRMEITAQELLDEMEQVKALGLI", "assay": "isothermal titration calorimetry", "type": "binding", "from_the_text": "isothermal titration calorimetry on TtMDH (malate dehydrogenase from Thermus thermophilus)"}, "[2]": {"target": "T1, TtMDH (malate dehydrogenase from Thermus thermophilus)", "assay": "X-ray crystal structure, […] Å", "type": "binding", "details": "apo crystal soaked with 2 mM NAD for about 30 min"}, "[3]": {"target": "the molecule itself", "assay": "SEC; analytical gel filtration on Superdex 200 HR; 0.1 ml TtMDH at 8.8 mg/ml; elution compared with high-molecular-weight standards; estimated mass 61 kDa against 37 kDa for the subunit"}, "[4]": {"substrate": "O=C(O)CC(=O)C(=O)O", "assay": "purified protein", "type": "biochemical, Thermus thermophilus", "details": "0.15 mM NADH, 100 mM glycine-NaOH pH 10.0, 37 °C"}},
  "data": [
    {"molecule": "NC(=O)C1=CN([C@@H]2O[C@H](COP(=O)(O)OP(=O)(O)OC[C@H]3O[C@@H](n4cnc5c(N)ncnc54)[C@H](O)[C@@H]3O)[C@@H](O)[C@H]2O)C=CC1", "note": "[NADH]", "values": [
      {"measurement": "Kd", "setting": "[1]", "result": 1.16, "unit": "µM"}
    ]},
    {"molecule": "NC(=O)c1ccc[n+]([C@@H]2O[C@H](COP(=O)(O)OP(=O)(O)OC[C@H]3O[C@@H](n4cnc5c(N)ncnc54)[C@H](O)[C@@H]3O)[C@@H](O)[C@H]2O)c1", "note": "[NAD]", "values": [
      {"measurement": "X-ray crystal structure, 2.36 Å", "setting": "[2]", "result": "co-substrate binding site of TtMDH that could be modeled as NAD"}
    ]},
    {"molecule": "B1", "values": [
      {"measurement": "stoichiometry N", "setting": "[3]", "result": 2},
      {"measurement": "Km", "setting": "[4]", "result": 168.1, "unit": "µM"},
      {"measurement": "kcat", "setting": "[4]", "result": 281.6, "unit": "s⁻¹"}
    ]}
  ]
}
